According to patent US20230265151A1, “GIP/GLP1 CO-AGONIST COMPOUNDS” (priority 2020, published 2023):
*1 amine or outer side, *2 acyl side, *3 side chain or, on linkers, in order; H or OH if unused. Where no end group is shown, it is not given here. Side-chain parts run from the residue outwards. [ ]: non-standard residue; d: D form. The star is where a group is joined. Decanoyl(10-(4-HOOC-PhO)) = O=C(O)c1ccc(OCCCCCCCCCC(=O)*)cc1; αMePhe(2-F) = C[C@](N)(Cc1ccccc1F)C(=O)O; γGlu = O=C(O)[C@H](CCC(=O)[*:2])N[*:1]; αMeY = C[C@](N)(Cc1ccc(O)cc1)C(=O)O; αMeL = CC(C)C[C@](C)(N)C(=O)O; Orn = NCCC[C@H](N)C(=O)O; AEEA = NCCOCCOCC(=O)O; Om = not defined here; Aib = CC(C)(N)C(=O)O

T1: human GIP receptor (human) (UniProt P48546)
T1 sequence (looked up): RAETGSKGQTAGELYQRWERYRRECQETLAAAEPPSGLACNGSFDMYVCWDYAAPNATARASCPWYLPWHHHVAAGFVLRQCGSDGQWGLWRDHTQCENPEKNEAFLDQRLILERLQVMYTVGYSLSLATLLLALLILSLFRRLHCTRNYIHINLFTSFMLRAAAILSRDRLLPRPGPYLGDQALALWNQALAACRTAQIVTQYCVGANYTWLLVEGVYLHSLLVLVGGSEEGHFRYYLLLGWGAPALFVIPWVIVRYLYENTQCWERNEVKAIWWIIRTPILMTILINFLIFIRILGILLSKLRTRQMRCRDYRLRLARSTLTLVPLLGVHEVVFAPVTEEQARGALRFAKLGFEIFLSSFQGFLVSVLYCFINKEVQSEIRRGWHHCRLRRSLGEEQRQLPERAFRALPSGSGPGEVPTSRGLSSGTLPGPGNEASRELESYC

T2: human GIP receptor (human, UniProt P48546 22-466)
T2 sequence (looked up): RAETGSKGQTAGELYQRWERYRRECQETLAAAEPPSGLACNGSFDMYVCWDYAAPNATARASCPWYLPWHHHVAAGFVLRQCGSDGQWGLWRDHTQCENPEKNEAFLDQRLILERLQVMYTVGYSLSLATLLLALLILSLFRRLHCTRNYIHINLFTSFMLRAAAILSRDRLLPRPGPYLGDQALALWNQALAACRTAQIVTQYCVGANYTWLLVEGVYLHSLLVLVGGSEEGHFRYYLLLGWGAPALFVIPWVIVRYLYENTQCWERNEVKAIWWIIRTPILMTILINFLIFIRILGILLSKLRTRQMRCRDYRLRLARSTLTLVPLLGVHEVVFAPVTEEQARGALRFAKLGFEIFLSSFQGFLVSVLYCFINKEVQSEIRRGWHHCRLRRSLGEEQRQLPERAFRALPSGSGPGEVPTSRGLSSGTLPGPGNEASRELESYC


Assays:
Test in all cases: cell-based or functional assay
[1] = target: hGLP-1R (Homo sapiens, UniProt P43220)
[2] = target: T1, human GIP receptor (human)
[3] = target: human glucagon receptor (human) (UniProt P47871)
[4] = target: T2, human GIP receptor
[5] = target: human GLP-1 receptor (human, UniProt P43220 24-463)
[6] = target: human glucagon receptor (human, UniProt P47871 26-477)
human glucagon receptor, sequence (P47871 26-477): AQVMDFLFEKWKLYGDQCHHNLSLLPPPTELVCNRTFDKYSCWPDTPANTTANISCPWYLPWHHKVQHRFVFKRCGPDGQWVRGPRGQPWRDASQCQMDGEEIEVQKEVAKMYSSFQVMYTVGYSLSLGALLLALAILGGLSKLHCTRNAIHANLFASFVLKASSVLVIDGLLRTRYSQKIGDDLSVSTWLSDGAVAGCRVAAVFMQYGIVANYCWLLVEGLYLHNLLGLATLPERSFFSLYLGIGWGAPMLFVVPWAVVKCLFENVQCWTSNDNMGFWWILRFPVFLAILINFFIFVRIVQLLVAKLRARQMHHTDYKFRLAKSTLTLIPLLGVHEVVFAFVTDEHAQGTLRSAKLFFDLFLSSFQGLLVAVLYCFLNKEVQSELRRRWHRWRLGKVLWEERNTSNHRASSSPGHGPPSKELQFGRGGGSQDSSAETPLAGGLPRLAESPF

| Binder | cAMP EC50 [1] [nM] | cAMP Emax [1] [%] | cAMP EC50 [2] [nM] | cAMP Emax [2] [%] | cAMP EC50 [3] [nM] | cAMP EC50 (1.0% HSA) [4] [nM] | cAMP Emax (1.0% HSA) [4] [%] | cAMP EC50 (1.0% HSA) [5] [nM] | cAMP Emax (1.0% HSA) [5] [%] | cAMP EC50 (1.0% HSA) [6] [nM] |
| --- | --- | --- | --- | --- | --- | --- | --- | --- | --- | --- |
| Y[Aib]EGT[αMePhe(2-F)]TSDV[Aib]I[αMeL]LD[Orn]K([AEEA-AEEA-γGlu-Decanoyl(10-(4-HOOC-PhO))])AQ[Aib][Om]FI[dE][αMeY]LIK([AEEA-AEEA-γGlu-Decanoyl(10-(4-HOOC-PhO))])GGPSSGAPPPS-NH2 (reading uncertain; also: printed as Y-Aib-EGT-αMeF(2F)-TSDV-Aib-I-αMeL-LD-Orn-K((2-[2-(2-Amino-ethoxy)-ethoxy]-acetyl)2-(γ-Glu)-(10-(4-carboxyphenoxy)decanoyl))AQ-Aib-Om-FI-(D-Glu)-αMeY-LIK((2-[2-(2-Amino-ethoxy)-ethoxy]-acetyl)2-(γ-Glu)-(10-(4-carboxyphenoxy)decanoyl))GGPSSGAPPPS-NH2) [Example 353] | 0.203 | 98 | 0.0249 | 98.2 | > 9950 | 5.35 | 84.8 | 7.12 | 92.5 | > 9950 |
| YXEGTXTSDYXIXLDXIAQXXFIKXLIKGGPSSGAPPPS (Y-Aib-EGT-αMeF(2F)-TSDY-Aib-I-αMeL-LD-Orn-IAQ-Aib-Orn-FIK((2-[2-(2-Amino-ethoxy)-ethoxy]-acetyl)3-(γ-Glu)-CO-(CH2)12-CO2H)-αMeY-LIK((2-[2-(2-Amino-ethoxy)-ethoxy]-acetyl)3-(γ-Glu)-CO-(CH2)12-CO2H)GGPSSGAPPPS-NH2) [Example 478] | – | – | – | – | – | 0.517 | – | 6.16 | 108 | > 9950 |
| YXEGTXTSDXSIXLDXQAQXXFIKXLIKGGPSSGAPPPS (Y-Aib-EGT-αMeF(2F)-TSD-hY-SI-αMeL-LD-Orn-QAQ-Aib-Orn-FIK((2-[2-(2-Amino-ethoxy)-ethoxy]-acetyl)2-(γ-Glu)-CO-(CH2)12-CO2H)-αMeY-LIK((2-[2-(2-Amino-ethoxy)-ethoxy]-acetyl)2-(γ-Glu)-CO-(CH2)12-CO2H)GGPSSGAPPPS-NH2) [Example 491] | – | – | – | – | – | 1.08 | 87.5 | 5.51 | – | > 9950 |
| YXEGTXTSDYXIXLDXQAQXXFIKXLIKGGPSSGAPPPS (Y-Aib-EGT-αMeF(2F)-TSDY-Aib-I-αMeL-LD-Orn-QAQ-Aib-Orn-FIK((2-[2-(2-Amino-ethoxy)-ethoxy]-acetyl)2-(γ-Glu)--C10_4CP)-αMeY-LIK((2-[2-(2-Amino-ethoxy)-ethoxy]-acetyl)2-(γ-Glu)--C10_4CP)GGPSSGAPPPS-NH2) [Example 492] | – | – | – | – | – | 0.371 | 88.7 | 4.31 | 104 | > 9950 |
| YXEGTXTSDYXIXLDXIAQXXFIKXLIKGGPSSGAPPPS (Y-Aib-EGT-αMeF(2F)-TSDY-Aib-I-αMeL-LD-Orn-IAQ-Aib-Orn-FIK((2-[2-(2-Amino-ethoxy)-ethoxy]-acetyl)3-(γ-Glu)--(10-(4-carboxyphenoxy)decanoyl))-αMeY-LIK((2-[2-(2-Amino-ethoxy)-ethoxy]-acetyl)3-(γ-Glu)--(10-(4-carboxyphenoxy)decanoyl))GGPSSGAPPPS-NH2) [Example 481] | – | – | – | – | – | 0.467 | – | 6.16 | 112 | > 9950 |
| YXEGTXTSDYXIXLDXQAQXXFIKXLIKGGPSSGAPPPS (Y-Aib-EGT-αMeF(2F)-TSDY-Aib-I-αMeL-LD-Orn-QAQ-Aib-Orn-FIK((2-[2-(2-Amino-ethoxy)-ethoxy]-acetyl)3-(γ-Glu)-CO-(CH2)12-CO2H)-αMeY-LIK((2-[2-(2-Amino-ethoxy)-ethoxy]-acetyl)3-(γ-Glu)-CO-(CH2)12-CO2H)GGPSSGAPPPS-NH2) [Example 479] | – | – | – | – | – | 0.196 | 89.5 | 2.55 | – | > 9950 |
| YXEGTXTSDYXIXLDXQAQXXFIKXLIKGGPSSGAPPPS (Y-Aib-EGT-αMeF(2F)-TSDY-Aib-I-αMeL-LD-Orn-QAQ-Aib-Orn-FIK((2-[2-(2-Amino-ethoxy)-ethoxy]-acetyl)2-(γ-Glu)2-CO-(CH2)12-CO2H)-αMeY-LIK((2-[2-(2-Amino-ethoxy)-ethoxy]-acetyl)2-(γ-Glu)2-CO-(CH2)12-CO2H)GGPSSGAPPPS-NH2) [Example 480] | – | – | – | – | – | 0.29 | – | 2.65 | 104 | > 9950 |
| YXEGTXTSDXXIXLDXKAQXKFIXXLIEGGPSSGAPPPS (Y-Aib-EGT-αMeF(2F)-TSD-4Pal-Aib-I-αMeL-LD-Orn-K((2-[2-(2-Amino-ethoxy)-ethoxy]-acetyl)2-(γ-Glu)-CO-(CH2)12-CO2H)AQ-Aib-K((2-[2-(2-Amino-ethoxy)-ethoxy]-acetyl)2-(γ-Glu)-CO-(CH2)12-CO2H)FI-(D-Glu)-αMeY-LIEGGPSSGAPPPS-NH2) [Example 357] | 0.649 | 107 | 0.011 | 99.9 | > 10100 | 1.19 | – | 36.2 | 92.8 | > 9950 |
| YXEGTXTSDXXIXLDXQAQXXFIKXLIKGGPSSGAPPPS (Y-Aib-EGT-αMeF(2F)-TSD-4Pal-Aib-I-αMeL-LD-Orn-QAQ-Aib-Orn-FIK((2-[2-(2-Amino-ethoxy)-ethoxy]-acetyl)2-(γ-Glu)2--(10-(4-carboxyphenoxy)decanoyl))-αMeY-LIK((2-[2-(2-Amino-ethoxy)-ethoxy]-acetyl)2-(γ-Glu)2--(10-(4-carboxyphenoxy)decanoyl))GGPSSGAPPPS-NH2) [Example 475] | – | – | – | – | – | 0.211 | – | 1.44 | – | > 9950 |
| YXEGTXTSDXXIXLDXQAQXXFIKXLIKGGPSSGAPPPS (Y-Aib-EGT-αMeF(2F)-TSD-4Pal-Aib-I-αMeL-LD-Orn-QAQ-Aib-Orn-FIK((2-[2-(2-Amino-ethoxy)-ethoxy]-acetyl)-(γ-Glu)-(2-[2-(2-Amino-ethoxy)-ethoxy]-acetyl)-(γ-Glu)-(10-(4-carboxyphenoxy)decanoyl))-αMeY-LIK((2-[2-(2-Amino-ethoxy)-ethoxy]-acetyl)-(γ-Glu)-(2-[2-(2-Amino-ethoxy)-ethoxy]-acetyl)-(γ-Glu)-(10-(4-carboxyphenoxy)decanoyl))GGPSSGAPPPS-NH2) [Example 485] | – | – | – | – | – | 0.536 | – | 3.9 | – | > 9950 |
| YXEGTXTSDXXIXLDXQAQXXFIKXLIKGGPSSGAPPPS (Y-Aib-EGT-αMeF(2F)-TSD-4Pal-Aib-I-αMeL-LD-Orn-QAQ-Aib-Orn-FIK((γ-Glu)-(2-[2-(2-Amino-ethoxy)-ethoxy]-acetyl)2-(γ-Glu)-(10-(4-carboxyphenoxy)decanoyl))-αMeY-LIK((γ-Glu)-(2-[2-(2-Amino-ethoxy)-ethoxy]-acetyl)2-(γ-Glu)-(10-(4-carboxyphenoxy)decanoyl))GGPSSGAPPPS-NH2) [Example 483] | – | – | – | – | – | 0.297 | – | 3.33 | – | > 9950 |
| YXEGTXTSDXXIXLDXQAQXXFIKXLIKGGPSSGAPPPS (Y-Aib-EGT-αMeF(2F)-TSD-4Pal-Aib-I-αMeL-LD-Orn-QAQ-Aib-Orn-FIK((2-[2-(2-Amino-ethoxy)-ethoxy]-acetyl)-(γ-Glu)3-(10-(4-carboxyphenoxy)decanoyl))-αMeY-LIK((2-[2-(2-Amino-ethoxy)-ethoxy]-acetyl)-(γ-Glu)3--(10-(4-carboxyphenoxy)decanoyl))GGPSSGAPPPS-NH2) [Example 487] | – | – | – | – | – | 0.429 | – | 3.16 | – | > 9950 |
| YXEGTXTSDXXIXLDXQAQXXFIKXLIKGGPSSGAPPPS (Y-Aib-EGT-αMeF(2F)-TSD-4Pal-Aib-I-αMeL-LD-Orn-QAQ-Aib-4Pal-FIK((2-[2-(2-Amino-ethoxy)-ethoxy]-acetyl)2-(γ-Glu)-(10-(4-carboxyphenoxy)decanoyl))-αMeY-LIK((2-[2-(2-Amino-ethoxy)-ethoxy]-acetyl)2-(γ-Glu)-(10-(4-carboxyphenoxy)decanoyl))GGPSSGAPPPS-NH2) [Example 493] | – | – | – | – | – | 0.591 | – | 7.24 | – | > 9950 |
| YXEGTXTSDXXIXLDXQAQXXFIKXLIKGGPSSGAPPPS (Y-Aib-EGT-αMeF(2F)-TSD-4Pal-Aib-I-αMeL-LD-Orn-QAQ-Aib-Orn-FIK((2-[2-(2-Amino-ethoxy)-ethoxy]-acetyl)2--Trx-(γ-Glu)-(10-(4-carboxyphenoxy)decanoyl))-αMeY-LIK(((2-[2-(2-Amino-ethoxy)-ethoxy]-acetyl)2--Trx-(γ-Glu)-(10-(4-carboxyphenoxy)decanoyl))GGPSSGAPPPS-NH2)) [Example 471] | – | – | – | – | – | 0.568 | – | 4.36 | – | > 9950 |
| YXEGTXTSDXXIXLDXQAQXXFIKXLIKGGPSSGAPPPS (Y-Aib-EGT-αMeF(2F)-TSD-4Pal-Aib-I-αMeL-LD-Orn-QAQ-Aib-Orn-FIK((2-[2-(2-Amino-ethoxy)-ethoxy]-acetyl)3-(γ-Glu)--(10-(4-carboxyphenoxy)decanoyl))-αMeY-LIK((2-[2-(2-Amino-ethoxy)-ethoxy]-acetyl)3-(γ-Glu)--(10-(4-carboxyphenoxy)decanoyl))GGPSSGAPPPS-NH2) [Example 477] | – | – | – | – | – | 0.163 | – | 1.56 | – | > 9950 |
